{"source": "paper PMC7290323", "origin": "cited, not measured here", "molecular_target": "GPP130 luminal domain (Homo sapiens) (UniProt O00461)", "sequence (O00461 34-696)": "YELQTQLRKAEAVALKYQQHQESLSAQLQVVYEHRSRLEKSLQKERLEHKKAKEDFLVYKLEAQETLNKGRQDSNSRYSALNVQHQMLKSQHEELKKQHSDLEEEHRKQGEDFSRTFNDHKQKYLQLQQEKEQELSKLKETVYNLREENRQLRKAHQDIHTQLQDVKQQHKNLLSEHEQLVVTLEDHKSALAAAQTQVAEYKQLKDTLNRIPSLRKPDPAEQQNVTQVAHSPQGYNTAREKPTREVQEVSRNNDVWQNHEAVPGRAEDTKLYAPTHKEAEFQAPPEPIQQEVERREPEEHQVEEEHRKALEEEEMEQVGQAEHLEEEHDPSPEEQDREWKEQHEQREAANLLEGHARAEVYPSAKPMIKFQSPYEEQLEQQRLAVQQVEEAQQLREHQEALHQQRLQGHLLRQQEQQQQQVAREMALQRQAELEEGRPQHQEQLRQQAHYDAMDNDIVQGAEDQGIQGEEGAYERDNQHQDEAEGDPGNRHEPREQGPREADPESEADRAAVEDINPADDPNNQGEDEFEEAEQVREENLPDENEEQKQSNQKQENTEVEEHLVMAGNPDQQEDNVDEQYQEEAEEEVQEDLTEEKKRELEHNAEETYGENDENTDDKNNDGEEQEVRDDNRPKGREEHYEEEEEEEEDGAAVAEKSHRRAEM", "note": "pKd: −log10 of the molar value.", "data": [{"substance": "Shiga toxin 1 B subunit (STxB/STx1B) (from UniProt Q32GM0)", "values": [{"measurement": "pKd", "value": 6.82}]}]}
